Laboratory results from PMC3633659.

How the values were obtained:
[1] = molecular target: Mamu-A2*01:02 (Chinese rhesus macaque | not stated); experiment: radioligand binding
[2] = molecular target: Mamu-B*010:01 (Chinese rhesus macaque | not stated); experiment: radioligand binding

| Binder | IC50 [1] [µM] | IC50 [2] [µM] |
| --- | --- | --- |
| SRHHAFCFR [… (Aggrecan precursor p667)] | 2.06 | > 20 |
| NRAKQVIKL [… (C. trachomatis protease ATPase)] | > 20 | 0.106 |
| KRVVINKDT [… (Y. enterocolitica Hsp60)] | > 20 | > 20 |
| DRLALLANL [… (C. trachomatis recC exodeoxyribonuclease-V g chain)] | 19.1 | > 20 |
| EREQTLNQL [… (C. trachomatis ATP-dependent zinc protein)] | 13.2 | > 20 |
| RRYQKSTEL [… (E. coli derived)] | 6.65 | 0.291 |
| MRDHTITLL [… (C. trachomatis NADH-ubiquinone-oxidoreductase-a-chain)] | > 20 | 0.008 |
